Experimental data from patent publication US20220195012A1.

Assays:
[1] = target: CP C3-convertase (C4b2a) (UniProt P0C0L4); assay: cell-based or functional assay
[2] = target: AP C3-convertase (C3bBb) (UniProt P01024); assay: cell-based or functional assay
Sequence of AP C3-convertase (C3bBb) (P01024 23-667 limits assumed, chain 1 of 3): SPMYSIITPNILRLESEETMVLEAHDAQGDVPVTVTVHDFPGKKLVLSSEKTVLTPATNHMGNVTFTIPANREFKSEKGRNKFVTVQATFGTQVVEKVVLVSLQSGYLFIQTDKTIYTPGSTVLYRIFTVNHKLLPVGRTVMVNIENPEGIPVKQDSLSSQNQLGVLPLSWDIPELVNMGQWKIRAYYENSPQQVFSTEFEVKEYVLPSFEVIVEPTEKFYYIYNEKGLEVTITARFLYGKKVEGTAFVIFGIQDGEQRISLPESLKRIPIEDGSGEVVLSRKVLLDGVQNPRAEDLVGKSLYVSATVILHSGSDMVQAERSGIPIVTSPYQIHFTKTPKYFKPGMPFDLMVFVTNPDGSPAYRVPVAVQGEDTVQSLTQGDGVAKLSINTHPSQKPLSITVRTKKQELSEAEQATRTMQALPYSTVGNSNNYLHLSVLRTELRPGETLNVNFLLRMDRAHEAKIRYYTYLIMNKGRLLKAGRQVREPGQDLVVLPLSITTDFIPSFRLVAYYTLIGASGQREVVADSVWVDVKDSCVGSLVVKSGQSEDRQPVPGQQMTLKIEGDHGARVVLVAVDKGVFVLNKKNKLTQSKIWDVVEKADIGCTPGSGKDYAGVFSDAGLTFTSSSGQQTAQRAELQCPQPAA
Sequence of AP C3-convertase (C3bBb) (P01024 749-1663 limits assumed, chain 2 of 3): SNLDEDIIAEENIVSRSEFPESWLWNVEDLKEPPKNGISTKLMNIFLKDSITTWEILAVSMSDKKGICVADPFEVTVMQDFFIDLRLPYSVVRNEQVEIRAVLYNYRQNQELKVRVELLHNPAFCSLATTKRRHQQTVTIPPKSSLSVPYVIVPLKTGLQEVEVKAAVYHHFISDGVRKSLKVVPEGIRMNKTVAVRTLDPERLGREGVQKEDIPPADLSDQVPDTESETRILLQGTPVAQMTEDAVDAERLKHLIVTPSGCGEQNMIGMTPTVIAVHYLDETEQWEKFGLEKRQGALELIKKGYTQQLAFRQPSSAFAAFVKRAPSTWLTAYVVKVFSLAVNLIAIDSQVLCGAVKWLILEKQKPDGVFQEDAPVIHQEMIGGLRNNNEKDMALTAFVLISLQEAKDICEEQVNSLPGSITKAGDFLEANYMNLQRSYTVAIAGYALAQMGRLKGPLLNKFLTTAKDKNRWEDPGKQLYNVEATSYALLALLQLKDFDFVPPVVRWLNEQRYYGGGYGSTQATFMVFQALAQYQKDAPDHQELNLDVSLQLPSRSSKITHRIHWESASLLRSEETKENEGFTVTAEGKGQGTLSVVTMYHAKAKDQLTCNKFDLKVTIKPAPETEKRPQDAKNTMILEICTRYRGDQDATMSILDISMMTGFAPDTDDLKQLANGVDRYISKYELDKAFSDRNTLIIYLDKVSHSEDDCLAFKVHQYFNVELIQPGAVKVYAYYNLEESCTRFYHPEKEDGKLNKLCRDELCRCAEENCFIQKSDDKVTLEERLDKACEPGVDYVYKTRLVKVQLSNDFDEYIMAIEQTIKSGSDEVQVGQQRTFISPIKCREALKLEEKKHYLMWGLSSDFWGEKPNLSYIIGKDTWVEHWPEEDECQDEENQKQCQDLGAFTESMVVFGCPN
Sequence of AP C3-convertase (C3bBb) (P00751 260-764 limits assumed, chain 3 of 3, further chain): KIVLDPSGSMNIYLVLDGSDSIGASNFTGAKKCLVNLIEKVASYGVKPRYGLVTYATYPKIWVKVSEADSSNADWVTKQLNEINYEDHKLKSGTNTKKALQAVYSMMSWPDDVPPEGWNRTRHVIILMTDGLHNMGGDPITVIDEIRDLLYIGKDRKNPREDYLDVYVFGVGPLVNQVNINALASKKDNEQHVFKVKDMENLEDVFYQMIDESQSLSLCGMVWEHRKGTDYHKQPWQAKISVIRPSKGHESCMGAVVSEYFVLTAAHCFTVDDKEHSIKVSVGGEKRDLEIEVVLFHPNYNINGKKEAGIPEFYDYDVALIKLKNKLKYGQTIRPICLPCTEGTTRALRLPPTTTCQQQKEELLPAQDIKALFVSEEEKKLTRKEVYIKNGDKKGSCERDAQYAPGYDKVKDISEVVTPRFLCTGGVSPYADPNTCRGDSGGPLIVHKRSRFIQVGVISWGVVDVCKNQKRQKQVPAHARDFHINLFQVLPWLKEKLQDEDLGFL

Sequence of CP C3-convertase (C4b2a) (P0C0L4 757-1446 limits assumed, chain 1 of 4): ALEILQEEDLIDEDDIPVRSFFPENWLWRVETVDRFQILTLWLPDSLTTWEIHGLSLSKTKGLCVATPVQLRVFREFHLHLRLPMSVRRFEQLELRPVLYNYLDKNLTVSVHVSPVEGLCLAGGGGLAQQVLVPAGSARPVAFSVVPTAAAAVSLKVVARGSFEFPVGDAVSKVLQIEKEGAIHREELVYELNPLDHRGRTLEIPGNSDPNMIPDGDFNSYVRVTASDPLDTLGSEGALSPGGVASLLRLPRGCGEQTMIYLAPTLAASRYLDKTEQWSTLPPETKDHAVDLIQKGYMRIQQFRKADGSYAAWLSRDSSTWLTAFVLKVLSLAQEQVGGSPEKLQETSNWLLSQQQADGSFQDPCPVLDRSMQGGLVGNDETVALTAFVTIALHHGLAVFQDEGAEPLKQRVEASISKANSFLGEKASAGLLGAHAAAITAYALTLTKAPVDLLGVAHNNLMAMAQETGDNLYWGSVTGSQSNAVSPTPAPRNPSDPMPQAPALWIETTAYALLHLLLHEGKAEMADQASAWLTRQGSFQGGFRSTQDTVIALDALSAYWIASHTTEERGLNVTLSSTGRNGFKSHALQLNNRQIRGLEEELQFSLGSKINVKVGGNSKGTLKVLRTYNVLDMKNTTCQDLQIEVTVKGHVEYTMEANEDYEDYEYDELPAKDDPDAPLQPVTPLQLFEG
Sequence of CP C3-convertase (C4b2a) (P0C0L4 20-675 limits assumed, chain 2 of 4): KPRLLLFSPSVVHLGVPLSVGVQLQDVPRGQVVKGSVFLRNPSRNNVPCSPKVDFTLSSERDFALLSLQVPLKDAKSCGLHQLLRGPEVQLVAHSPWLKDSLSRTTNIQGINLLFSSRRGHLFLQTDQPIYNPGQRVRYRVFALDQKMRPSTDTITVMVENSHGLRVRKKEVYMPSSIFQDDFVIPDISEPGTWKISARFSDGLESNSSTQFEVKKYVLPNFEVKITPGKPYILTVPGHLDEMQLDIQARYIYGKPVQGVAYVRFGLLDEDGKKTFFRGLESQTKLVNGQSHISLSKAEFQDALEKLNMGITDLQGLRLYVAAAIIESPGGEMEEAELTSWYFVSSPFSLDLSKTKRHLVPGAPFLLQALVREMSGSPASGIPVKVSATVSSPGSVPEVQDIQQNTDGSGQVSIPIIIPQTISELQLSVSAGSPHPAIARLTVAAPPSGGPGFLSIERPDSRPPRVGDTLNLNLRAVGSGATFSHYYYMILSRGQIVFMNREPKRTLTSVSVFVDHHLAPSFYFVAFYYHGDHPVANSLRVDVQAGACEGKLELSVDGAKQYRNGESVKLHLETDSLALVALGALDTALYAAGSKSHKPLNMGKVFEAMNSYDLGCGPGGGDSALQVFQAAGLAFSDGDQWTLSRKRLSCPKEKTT
Sequence of CP C3-convertase (C4b2a) (P0C0L4 1454-1744 limits assumed, chain 3 of 4): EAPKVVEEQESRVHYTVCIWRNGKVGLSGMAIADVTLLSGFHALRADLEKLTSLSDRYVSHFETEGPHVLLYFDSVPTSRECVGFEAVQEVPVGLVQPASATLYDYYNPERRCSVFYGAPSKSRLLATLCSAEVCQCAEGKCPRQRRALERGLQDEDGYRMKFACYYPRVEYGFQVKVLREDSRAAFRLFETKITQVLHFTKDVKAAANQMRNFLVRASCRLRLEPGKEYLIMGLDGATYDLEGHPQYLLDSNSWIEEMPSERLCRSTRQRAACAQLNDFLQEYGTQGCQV
Sequence of CP C3-convertase (C4b2a) (P06681 244-752 limits assumed, chain 4 of 4, further chain): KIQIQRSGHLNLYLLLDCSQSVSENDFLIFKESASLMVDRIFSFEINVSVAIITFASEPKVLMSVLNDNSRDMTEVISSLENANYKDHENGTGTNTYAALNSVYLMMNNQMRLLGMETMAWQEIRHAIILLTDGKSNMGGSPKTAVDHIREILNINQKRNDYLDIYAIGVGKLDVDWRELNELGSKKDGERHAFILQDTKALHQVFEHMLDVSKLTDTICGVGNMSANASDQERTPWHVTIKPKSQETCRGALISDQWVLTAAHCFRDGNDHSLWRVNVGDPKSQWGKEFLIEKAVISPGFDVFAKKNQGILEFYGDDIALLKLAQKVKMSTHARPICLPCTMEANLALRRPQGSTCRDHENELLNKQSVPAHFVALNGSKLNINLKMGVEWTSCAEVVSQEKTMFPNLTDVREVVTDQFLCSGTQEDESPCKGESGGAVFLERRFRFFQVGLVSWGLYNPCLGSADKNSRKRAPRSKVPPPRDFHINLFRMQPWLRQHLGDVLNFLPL
Sequence of D2D3 (DAF deletion mutant D2-D3) (P08174 98-224 limits assumed, stated change not applied): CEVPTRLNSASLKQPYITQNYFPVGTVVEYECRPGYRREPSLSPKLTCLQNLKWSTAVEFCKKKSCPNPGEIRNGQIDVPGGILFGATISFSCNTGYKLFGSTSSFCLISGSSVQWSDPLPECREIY

CP-DAA IC50 [1]	Relative CP-DAA [1]	AP-DAA IC50 [2]	Relative AP-DAA [2]	AP-DAA, fold reduction compared to DAF [2]	Substance
10.9 µM	< 0.3	> 0.01 µM	< 0.2		D2D3 (DAF deletion mutant D2-D3) (from UniProt P08174 98-224)
5.7 µM	0.4	0.0056 µM	0.4	10 fold	D2D3D4M4 (DAF-MCP chimera)
